In article PMC11503491 (ACS Central Science, 2024):

B1: 1-16 (antibody, V domains shown)
VH: QVQLVQSGAEVKKPGASVKVSCKASGYTFTSYYMHWVRQAPGQGLEWMGIINSSGGSTSYAQKFQGRVTMTRDTSTSTVYMELSSLRSEDTAVYYCARPPRNYYDRSGYYQRAEYFQHWGQGTLVTVSS
VL: DIQLTQSPSSLSASVGDRVTITCQASQDISNYLNWYQQRPGKAPKLLIYDASNLETGVPSRFSGSGSGTDFTFTISSLQPEDIATYYCQQYDNPPLTFGGGTKLEIK
notes: also called S2X259-like class 4 antibody
B2: CR3022 (class 4 RBD-directed antibody) (antibody, V domains shown)
VH: QMQLVQSGTEVKKPGESLKISCKGSGYGFITYWIGWVRQMPGKGLEWMGIIYPGDSETRYSPSFQGQVTISADKSINTAYLQWSSLKASDTAIYYCAGGSGISTPMDVWGQGTTVTVSS
VL: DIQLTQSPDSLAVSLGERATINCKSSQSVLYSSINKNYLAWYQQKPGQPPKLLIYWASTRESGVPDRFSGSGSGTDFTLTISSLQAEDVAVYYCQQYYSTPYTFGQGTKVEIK
notes: IgG
B3: CR3022 (antibody, V domains shown)
VH: B2 VH
VL: not shown
notes: also called class 4 antibody
B4: SA55 (antibody, V domains shown)
VH: QVQLVQSGAEVKKPGSSVKVSCKASGGTFRSHVISWVRQAPGQGLEWMGGFIPLFGTTIYAQAFQGRVMISADESTSTAYMELSSLRSEDTAVYFCARLFPNGDPNSPEDGFDIWGQGTLVTVSS
VL: DIQMTQSPSSLSASVGDRVTITCQASQDIGNYLNWYQQKPGKAPKLLIYDASHLETGVPSRFSGSGSGTDFTFTISSLQPEDIATYYCQRYDDLPSYTFGQGTKVEIK
notes: as for B1
B5: C022 (antibody, V domains shown)
VH: QVQLQESGPGLVKPSETLSVTCTVSGGSISSSRYYWGWIRQPPGKGLEWIGSIYYSGSTYYNPSLKSRVTISVDTSKNQFSLKLSSVTAADTAVYYCARHAAAYYDRSGYYFIEYFQHWGQGTLVTVSS
VL: DIQMTQSPSTLSASVGDSVTITCRASQSISSWLAWYQQKPGKAPKLLIYKASSLESGVPSRFSGSGSGTEFTLTISSLQPDDFATYYCQQYNNYRYTFGQGTKLEIK
notes: as for B1
B6: COVA2-15 (antibody, V domains shown)
VH: QVQLLESGGGLVQPGGSLRLSCAASGFTFSSYAMSWVRQAPGKGLEWASAISGSGGSTYYADSVEGRFTISRDNSKNTLYLQMNSLRAEDTAVYYCAKDTGYCGDDCYIKLIRGGPDYWGQGTLVTVSS
VL: DIVMTQSPLSLPVTLGQPASISCRSSQSLVYSDGNTFLNWFQQRPGQSPRRLIYQVSNRDSGVPDRFSGSGSGTDFTLKISRVEAEDVGVYYCMQGTHWPRTFGQGTKLEIK
notes: also called class 2 antibody
B7: CB6 (class 1 RBD-directed antibody) (antibody, V domains shown)
VH: EVQLVESGGGLVQPGGSLRLSCAASGFTVSSNYMSWVRQAPGKGLEWVSVIYSGGSTFYADSVKGRFTISRDNSMNTLFLQMNSLRAEDTAVYYCARVLPMYGDYLDYWGQGTLVTVSS
VL: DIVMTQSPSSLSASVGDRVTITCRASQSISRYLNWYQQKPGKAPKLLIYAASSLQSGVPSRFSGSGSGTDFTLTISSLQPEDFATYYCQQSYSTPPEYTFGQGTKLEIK
B8: CB6 (antibody, V domains shown)
VH: B7 VH
VL: not shown
B9: S2X259 IgG (antibody, V domains shown)
VH: QVQLVQSGAEVKKPGSSVKVSCKASGGIFNTYTISWVRQAPGQGLEWMGRIILMSGMANYAQKIQGRVTITADKSTSTAYMELTSLRSDDTAVYYCARGFNGNYYGWGDDDAFDIWGQGTLVTVYS
VL: QTVLTQPPSVSGAPGQRVTISCTGSNSNIGAGYDVHWYQQLPGTAPKLLICGNSNRPSGVPDRFSGSKSGTSASLAITGLQAEDEADYYCQSYDSSLSGPNWVFGGGTKLTVL
notes: also called class 4 mAb
B10: fragment antigen-binding region (Fab) of S2X259 (Fab, V domains shown)
VH: B9 VH
VL: B9 VL
notes: also called S2X259 Fab
B11: C002 (antibody, V domains shown)
VH: EVQLVESGGGVVQPGRSLRLSCAASGFTFSIYGMHWVRQAPGKGLEWVAVISYDGSNKYYADSVKGRFTISRDNSKNTLYLQMNSLRAEDTAVYYCAKEGRPSDIVVVVAFDYWGQGTLVTVSS
VL: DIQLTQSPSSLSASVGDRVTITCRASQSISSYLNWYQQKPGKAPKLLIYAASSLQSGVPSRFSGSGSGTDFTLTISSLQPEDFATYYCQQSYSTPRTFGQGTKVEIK

Columns and labels:
[1] = target: wild-type SARS-CoV-2 Wuhan Hu-1 receptor-binding domain (residues 319-533) (SARS-CoV-2 Wuhan-Hu-1); test: BLI; details: both partners purified
[2] = target: SARS-CoV-2 RBD (RWT), wild-type Wuhan Hu-1 receptor-binding domain, residues 319-533 (SARS-CoV-2 Wuhan Hu-1); test: BLI; details: both partners purified

Binder | binding result [1] | also measured
B1 | binds | 
B2 |  | koff [2]: 0.016 s⁻¹
B3 | binds | 
B4 | binds | 
B5 | binds | 
B6 | binds | 
B7 |  | koff [2]: 0.013 s⁻¹
B8 | binds | 
B9 |  | koff [1]: 0.0011 s⁻¹
B10 |  | Kd [1]: 0.97 ± 0.5 nM
B11 | binds | 
